Laboratory results: publication PMC11128299 (Biophysics and Physicobiology, 2023)
Like-named read-outs stand apart in the source and are kept apart here.

Assays:
crystal structure [1] = molecular target: the molecule itself; assay: crystal structure
crystal structure [2] = molecular target: the molecule itself; assay: crystal structure; remark: listed apart in the source

| Protein | stoichiometry N (crystal structure [1]) | stoichiometry N (crystal structure [2]) |
| --- | --- | --- |
| KaiC-CV (KaiC with S431C and T432V substitutions) (enzyme) MTSAEMTSPNNNSEHQAIAKMRTMIEGFDDISHGGLPIGRSTLVSGTSGTGKTLFSIQFLYNGIIEFDEPGVFVTFEETPQDIIKNARSFGWDLAKLVDEGKLFILDASPDPEGQEVVGGFDLSALIERINYAIQKYRARRVSIDSVTSVFQQYDASSVVRRELFRLVARLKQIGATTVMTTERIEEYGPIARYGVEEFVSDNVVILRNVLEGERRRRTLEILKLRGTSHMKGEYPFTITDHGINIFPLGAMRLTQRSSNVRVSSGVVRLDEMCGGGFFKDSIILATGATGTGKTLLVSRFVENACANKERAILFAYEESRAQLLRNAYSWGMDFEEMERQNLLKIVCAYPESAGLEDHLQIIKSEINDFKPARIAIDSLSALARGVSNNAFRQFVIGVTGYAKQEEITGLFTNTSDQFMGAHSITDSHICVITDTIILLQYVEIRGEMSRAINVFKMRGSWHDKAIREFMISDKGPDIKDSFRNFERIISGSPTRITVDEKSELSRIVRGVQEKGPES | 6 | – |
| KaiC-TV (KaiC with threonine at position 431 and valine at position 432) (enzyme) MTSAEMTSPNNNSEHQAIAKMRTMIEGFDDISHGGLPIGRSTLVSGTSGTGKTLFSIQFLYNGIIEFDEPGVFVTFEETPQDIIKNARSFGWDLAKLVDEGKLFILDASPDPEGQEVVGGFDLSALIERINYAIQKYRARRVSIDSVTSVFQQYDASSVVRRELFRLVARLKQIGATTVMTTERIEEYGPIARYGVEEFVSDNVVILRNVLEGERRRRTLEILKLRGTSHMKGEYPFTITDHGINIFPLGAMRLTQRSSNVRVSSGVVRLDEMCGGGFFKDSIILATGATGTGKTLLVSRFVENACANKERAILFAYEESRAQLLRNAYSWGMDFEEMERQNLLKIVCAYPESAGLEDHLQIIKSEINDFKPARIAIDSLSALARGVSNNAFRQFVIGVTGYAKQEEITGLFTNTSDQFMGAHSITDSHITVITDTIILLQYVEIRGEMSRAINVFKMRGSWHDKAIREFMISDKGPDIKDSFRNFERIISGSPTRITVDEKSELSRIVRGVQEKGPES | – | 6 |
